Among the data in US20120231014A1 are Kd values, retold here.

Experiment [1] addresses PTPσ-Fc fusion protein (recombinant mouse PTPσ extracellular domain, short isoform, fused to Fc) (mouse) (UniProt B0V2N1). The experiment in a line: cell-free plate assay: PTPσ-Fc on protein A plates, biotinylated aggrecan detected with streptavidin-AP, hyperbolic curve fit.
For experiment [2] the target is unchanged. The experiment in a line: cell-free plate assay: PTPσ-Fc on protein A plates, increasing Ncn-AP, bound AP activity, Scatchard analysis.

Consider “biotinylated purified aggrecan (bovine; Sigma) (from UniProt P13608 17-2364)”, for which the Kd in experiment [1] turned out to be 19 nM.
In the case of “Ncn-AP fusion protein (mouse neurocan amino acids 1-963 fused to placental alkaline phosphatase) (from UniProt P55066 23-963; P05187 23-511)”, in experiment [2], the Kd came out at 11 nM.

The Kd is a measure of binding affinity in units of concentration.
